From publication PMC7016005 (2020)

B1: mouse Twist1, wildtype [mouse] / mouse E2A [mouse] (parent complex)
chain 1: MMQDVSSSPVSPADDSLSNSEEEPDRQQPASGKRGARKRRSSRRSAGGSAGPGGATGGGIGGGDEPGSPAQGKRGKKSAGGGGGGGAGGGGGGGGGSSSGGGSPQSYEELQTQRVMANVRERQRTQSLNEAFAALRKIIPTLPSDKLSKIQTLKLAARYIDFLYQVLQSDELDSKMASCSYVAHERLSYAFSVWRMEGAWSMSASH
chain 2: MMNQSQRMAPVGSDKELSDLLDFSMMFPLPVANGKSRPASLGGTQFAGSGLEDRPSSGSWGSSDQNSSSFDPSRTYSEGAHFSDSHSSLPPSTFLGAGLGGKGSERNAYATFGRDTSVGTLSQAGFLPGELSLSSPGPLSPSGIKSSSQYYPSFPSNPRRRAADGGLDTQPKKVRKVPPGLPSSVYPPSSGDSYSRDAAAYPSAKTPSSAYPSPFYVADGSLHPSAELWSTPSQVGFGPMLGDGSSPLPLAPGSSSVGSGTFGGLQQQDRMGYQLHGSEVNGSLPAVSSFSAAPGTYSGTSGHTPPVSGAAAESLLGTRGTTASSSGDALGKALASIYSPDHSSNNFSPSPSTPVGSPQGLPGTSQWPRAGAPSALSPNYDAGLHGLSKMEDRLDEAIHVLRSHAVGTASDLHGLLPGHGALTTSFTGPMSLGGRHAGLVGGSHPEEGLTSGASLLHNHASLPSQPSSLPDLSQRPPDSYSGLGRAGTTAGASEIKREEKEDEEIASVADAEEDKKDLKVPRTRTSPDEDEDDLLPPEQKAEREKERRVANNARERLRVRDINEAFKELGRMCQLHLSSEKPQTKLLILHQAVAVILSLEQQVRERNLNPKAACLKRREEEKVSGVVGDPQLALSAAHPGLGEAHNPAGHL

Variants of: B1
Assay: co-immunoprecipitation (Flag-IP), blot quantified by ImageJ; Flag-E2A bait, Twist1-Myc prey; n = 3; parent: 1; read off a plot

response	Variant
~0.05 relative expression (/GAPDH)	chain 1 S192P
~0.52 relative expression (/GAPDH)	chain 1 A190T
~1.6 relative expression (/GAPDH)	chain 1 F191S
